Substitutions are numbered along the chain they refer to.

To fix the notation:
B1: NRC3_wobSeed38_DR1_o1 (dsDNA)
DNA 1: GCCCTGCTAGGTCAATGGTCAGCTAAAGCAGCTCGCGCGATTGACAGCGTAGAATGAAGG
DNA 2: CCTTCATTCTACGCTGTCAATCGCGCGAGCTGCTTTAGCTGACCATTGACCTAGCAGGGC
B2: NRC3_wobSeed26_DR1_A21T_o1 (dsDNA)
DNA 1: GCTCTAGTTGGTCAAAGGTCTCACACTCGAAATGCGGCGATTGACAGCGTAGAATGAAGG
DNA 2: CCTTCATTCTACGCTGTCAATCGCCGCATTTCGAGTGTGAGACCTTTGACCAACTAGAGC
B3: NRC3_wobSeed26_DR1_T19C_o1 (dsDNA)
DNA 1: B2 DNA 1 with T19C, T21A
DNA 2: B2 DNA 2 with A40T, A42G
B4: NRC3_wobSeed31_DR1_A15T_o1 (dsDNA)
DNA 1: GCTCATATAGGTAATAGGTGAAAGTCGGTGTGGTAAGCGATTGACAGCGTAGAATGAAGG
DNA 2: CCTTCATTCTACGCTGTCAATCGCTTACCACACCGACTTTCACCTATTACCTATATGAGC
B5: NRC3_wobSeed36_DR1_G9T_o1 (dsDNA)
DNA 1: GCCCGACTTGGGCAAAGGTTACCATACTCAGTACGAGCGATTGACAGCGTAGAATGAAGG
DNA 2: CCTTCATTCTACGCTGTCAATCGCTCGTACTGAGTATGGTAACCTTTGCCCAAGTCGGGC
B6: NRC3_wobSeed72_DR2_A22G_o1 (dsDNA)
DNA 1: GCTCGAGTAGGTTACGGGGGCGTTCAGGGATGAAGAGCGATTGACAGCGTAGAATGAAGG
DNA 2: CCTTCATTCTACGCTGTCAATCGCTCTTCATCCCTGAACGCCCCCGTAACCTACTCGAGC
B7: NRC3_wobSeed102_DR4_A9C_o1 (dsDNA)
DNA 1: GCCCTAGCCGGCCAATCTGGGTCACTCAAGGCTTGAGCGATTGACAGCGTAGAATGAAGG
DNA 2: CCTTCATTCTACGCTGTCAATCGCTCAAGCCTTGAGTGACCCAGATTGGCCGGCTAGGGC
B8: NRC3_wobSeed69_DR2_C15G_o1 (dsDNA)
DNA 1: GCAGTCAAAGTTCAGTAGGTAACGTAAGATTCAGCTGCGATTGACAGCGTAGAATGAAGG
DNA 2: CCTTCATTCTACGCTGTCAATCGCAGCTGAATCTTACGTTACCTACTGAACTTTGACTGC
B9: NRC3_wobSeed110_DR4_T27G_o1 (dsDNA)
DNA 1: GCTCTGCTAGGTCAACGATGGTCAGCGAATCTGCTAGCGATTGACAGCGTAGAATGAAGG
DNA 2: CCTTCATTCTACGCTGTCAATCGCTAGCAGATTCGCTGACCATCGTTGACCTAGCAGAGC
B10: NRC3_wobSeed136_DR5_A30G_o1 (dsDNA)
DNA 1: GCTAGCCTAGGTCATTCAGGGGCCAGTATGGAAAGCGCGATTGACAGCGTAGAATGAAGG
DNA 2: CCTTCATTCTACGCTGTCAATCGCGCTTTCCATACTGGCCCCTGAATGACCTAGGCTAGC
B11: NRC3_wobSeed136_DR5_C24T_o1 (dsDNA)
DNA 1: B10 DNA 1 with C24T, G30A
DNA 2: B10 DNA 2 with C31T, G37A
B12: NRC3_wobSeed134_DR5_A30G_o1 (dsDNA)
DNA 1: GCGCTGCTAGGTCAACTGATGGTCAGCTAGAGCTCGGCGATTGACAGCGTAGAATGAAGG
DNA 2: CCTTCATTCTACGCTGTCAATCGCCGAGCTCTAGCTGACCATCAGTTGACCTAGCAGCGC
B13: NRC3_wobSeed75_DR3_G24A_o1 (dsDNA)
DNA 1: GCTCTCGGAGGACACGAAGGTCAAAGCTTTCCAGAGGCGATTGACAGCGTAGAATGAAGG
DNA 2: CCTTCATTCTACGCTGTCAATCGCCTCTGGAAAGCTTTGACCTTCGTGTCCTCCGAGAGC
B14: NRC3_wobSeed141_DR5_G16C_o1 (dsDNA)
DNA 1: GCAGTCAAAGTTCAGCACGAGGTAACGTAAAGCACGGCGATTGACAGCGTAGAATGAAGG
DNA 2: CCTTCATTCTACGCTGTCAATCGCCGTGCTTTACGTTACCTCGTGCTGAACTTTGACTGC
B15: NRC3_wobSeed141_DR5_C26T_o1 (dsDNA)
DNA 1: B14 DNA 1 with C16G, C26T
DNA 2: B14 DNA 2 with G35A, G45C
B16: NRC3_wobSeed34_DR1_A9G_o1 (dsDNA)
DNA 1: GCATCGAAGGGTCGAAGGTGAGTATACCCACCCGAAGCGATTGACAGCGTAGAATGAAGG
DNA 2: CCTTCATTCTACGCTGTCAATCGCTTCGGGTGGGTATACTCACCTTCGACCCTTCGATGC
B17: NRC3_wobSeed64_DR2_G18T_o1 (dsDNA)
DNA 1: GCTAGCCTAGGTCATTGTGCCAGTATAGTACGCATCGCGATTGACAGCGTAGAATGAAGG
DNA 2: CCTTCATTCTACGCTGTCAATCGCGATGCGTACTATACTGGCACAATGACCTAGGCTAGC
B18: NRC3_wobSeed14_DR0_C22G_o1 (dsDNA)
DNA 1: GCCCTGCTAGGTCATGGTCAGGTAATCTACAGTATGGCGATTGACAGCGTAGAATGAAGG
DNA 2: CCTTCATTCTACGCTGTCAATCGCCATACTGTAGATTACCTGACCATGACCTAGCAGGGC
B19: NRC3_wobSeed14_DR0_T5C_o1 (dsDNA)
DNA 1: B18 DNA 1 with T5C, G22C
DNA 2: B18 DNA 2 with C39G, A56G
B20: NRC3_wobSeed137_DR5_A25T_o1 (dsDNA)
DNA 1: GCATATGTAGGTTACATCCGGGTCTTTCAGGCTATGGCGATTGACAGCGTAGAATGAAGG
DNA 2: CCTTCATTCTACGCTGTCAATCGCCATAGCCTGAAAGACCCGGATGTAACCTACATATGC
B21: NRC3_wobSeed137_DR5_A14C_o1 (dsDNA)
DNA 1: B20 DNA 1 with A14C, T25A
DNA 2: B20 DNA 2 with A36T, T47G
B22: NRC3_wobSeed54_DR2_G15T_o1 (dsDNA)
DNA 1: GCTCTAGCAGGCCATAGGGTCACTCAAGAGGTACGGGCGATTGACAGCGTAGAATGAAGG
DNA 2: CCTTCATTCTACGCTGTCAATCGCCCGTACCTCTTGAGTGACCCTATGGCCTGCTAGAGC
B23: NRC3_wobSeed43_DR1_G26C_o1 (dsDNA)
DNA 1: GCCCAGACAGGTGAAAGGTAACTCACTCTGGTACGCGCGATTGACAGCGTAGAATGAAGG
DNA 2: CCTTCATTCTACGCTGTCAATCGCGCGTACCAGAGTGAGTTACCTTTCACCTGTCTGGGC
B24: NRC3_wobSeed20_DR0_C19T_o1 (dsDNA)
DNA 1: GCAGAATGAGGTTAAGATTAGGGAAACAGAATACATGCGATTGACAGCGTAGAATGAAGG
DNA 2: CCTTCATTCTACGCTGTCAATCGCATGTATTCTGTTTCCCTAATCTTAACCTCATTCTGC
B25: NRC3_wobSeed116_DR4_A18G_o1 (dsDNA)
DNA 1: GCAGAATGAGGTTACCAGAGATCAGGGAAACGCTTGGCGATTGACAGCGTAGAATGAAGG
DNA 2: CCTTCATTCTACGCTGTCAATCGCCAAGCGTTTCCCTGATCTCTGGTAACCTCATTCTGC
B26: NRC3_wobSeed116_DR4_C15A_o1 (dsDNA)
DNA 1: B25 DNA 1 with C15A, G18A
DNA 2: B25 DNA 2 with C43T, G46T
B27: NRC3_wobSeed116_DR4_A6T_o1 (dsDNA)
DNA 1: B25 DNA 1 with A6T, G18A
DNA 2: B25 DNA 2 with C43T, T55A
B28: NRC3_wobSeed47_DR1_A5T_o1 (dsDNA)
DNA 1: GCGGTACGAGGGCAAAGTTGATAGCATCTGTCGACGGCGATTGACAGCGTAGAATGAAGG
DNA 2: CCTTCATTCTACGCTGTCAATCGCCGTCGACAGATGCTATCAACTTTGCCCTCGTACCGC
B29: NRC3_wobSeed140_DR5_T15C_o1 (dsDNA)
DNA 1: GCAGAATGAGGTTACACGTAGATCAGGGAAGAAAGTGCGATTGACAGCGTAGAATGAAGG
DNA 2: CCTTCATTCTACGCTGTCAATCGCACTTTCTTCCCTGATCTACGTGTAACCTCATTCTGC
B30: NRC3_wobSeed98_DR4_A28T_o1 (dsDNA)
DNA 1: GCACTAGTTGGTCAGCTGAGGTCACACTCAATTCGGGCGATTGACAGCGTAGAATGAAGG
DNA 2: CCTTCATTCTACGCTGTCAATCGCCCGAATTGAGTGTGACCTCAGCTGACCAACTAGTGC
B31: NRC3_wobSeed124_DR5_C17G_o1 (dsDNA)
DNA 1: GCCCTACTGGGCCATTGAGAGGTCATTGATCATATGGCGATTGACAGCGTAGAATGAAGG
DNA 2: CCTTCATTCTACGCTGTCAATCGCCATATGATCAATGACCTCTCAATGGCCCAGTAGGGC
B32: NRC3_wobSeed7_DR0_T6G_o1 (dsDNA)
DNA 1: GCTCAGATAGGTAAAGGTGAAAGTCGAACGATATGAGCGATTGACAGCGTAGAATGAAGG
DNA 2: CCTTCATTCTACGCTGTCAATCGCTCATATCGTTCGACTTTCACCTTTACCTATCTGAGC

Chain of PPARa:RXRa (Q07869 whole entry, chain 1 of 2): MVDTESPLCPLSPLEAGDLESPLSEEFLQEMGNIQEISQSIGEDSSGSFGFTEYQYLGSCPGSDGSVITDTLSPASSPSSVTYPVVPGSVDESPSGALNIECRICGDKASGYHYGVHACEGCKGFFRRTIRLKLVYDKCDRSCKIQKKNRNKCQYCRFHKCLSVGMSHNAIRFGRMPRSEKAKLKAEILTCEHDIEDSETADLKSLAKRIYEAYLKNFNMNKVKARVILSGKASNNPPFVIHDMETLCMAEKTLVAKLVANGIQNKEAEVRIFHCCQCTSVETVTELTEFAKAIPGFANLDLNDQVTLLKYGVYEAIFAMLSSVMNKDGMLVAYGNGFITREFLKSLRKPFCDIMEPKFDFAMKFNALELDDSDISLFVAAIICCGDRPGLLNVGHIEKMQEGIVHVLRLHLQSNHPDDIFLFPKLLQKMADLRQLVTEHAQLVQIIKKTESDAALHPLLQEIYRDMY
Chain of PPARa:RXRa (P19793 whole entry, chain 2 of 2): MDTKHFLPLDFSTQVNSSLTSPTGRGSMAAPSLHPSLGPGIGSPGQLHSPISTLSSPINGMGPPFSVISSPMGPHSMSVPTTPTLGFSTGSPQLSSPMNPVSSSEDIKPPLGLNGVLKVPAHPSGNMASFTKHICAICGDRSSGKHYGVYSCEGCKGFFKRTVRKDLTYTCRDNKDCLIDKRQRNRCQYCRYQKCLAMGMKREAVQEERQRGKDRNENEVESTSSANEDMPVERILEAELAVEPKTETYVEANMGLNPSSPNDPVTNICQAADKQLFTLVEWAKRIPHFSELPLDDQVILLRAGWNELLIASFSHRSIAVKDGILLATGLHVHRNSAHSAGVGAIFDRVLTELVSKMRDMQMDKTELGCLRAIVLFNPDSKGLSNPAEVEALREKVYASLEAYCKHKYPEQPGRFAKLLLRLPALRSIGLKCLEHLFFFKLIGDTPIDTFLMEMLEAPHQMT

The target in this data set is PPARa:RXRa (Homo sapiens, UniProt Q07869;P19793 full;full). Nature of the data set: no ligand; PBM; 270 nM : 90 nM RXRa; PBS pH 7.4, 2% milk, 0.02% Triton X-100, 1 mM DTT, BSA, 0.4 mg/ml salmon testes DNA. The settings on record: tags: GST kept;His cleaved; copies: 1;1; label: surface-attached array probe. Put shortly:
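For binding z-scores, the reference was random background probes on custom Agilent 4×180K protein-binding microarrays. These arrays were incubated 1 h with ligand-free nuclear receptor dimers in PBS pH 7.4, 2% milk, 0.02% Triton X-100, 1 mM DTT, 0.2 mg/mL BSA and 0.4 mg/ml salmon testes DNA. Fluorescence was scanned after antibody detection of each partner (one per run) and regression-normalized.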
Consider B1, for which the binding signal is 3.19 PBM z-score against 500 random probes.
Under B2 stands 3.41 PBM z-score against 500 random probes; under B3, 3.15 PBM z-score against 500 random probes.
Under B4 stands 3.69 PBM z-score against 500 random probes; under B5, 3.64 PBM z-score against 500 random probes; under B6, 3.48 PBM z-score against 500 random probes.
To B7 belongs 3.14 PBM z-score against 500 random probes; to B8, 3.56 PBM z-score against 500 random probes.
In the case of B9, the binding signal is 3.11 PBM z-score against 500 random probes.
To B10 belongs 3.67 PBM z-score against 500 random probes; to B11, 3.65 PBM z-score against 500 random probes.
B12: the binding signal was 3.59 PBM z-score against 500 random probes.
Under B13 stands 3.46 PBM z-score against 500 random probes; under B14, 3.7 PBM z-score against 500 random probes.
Under B15 stands 3.3 PBM z-score against 500 random probes.
To B16 belongs 3.17 PBM z-score against 500 random probes.
Take B17: the binding signal is 3.37 PBM z-score against 500 random probes.
Under B18 stands 3.51 PBM z-score against 500 random probes; under B19, 3.35 PBM z-score against 500 random probes.
Regarding B20, the binding signal is 3.32 PBM z-score against 500 random probes.
B21: the binding signal is 3.09 PBM z-score against 500 random probes.
Take B22: the binding signal is 3.24 PBM z-score against 500 random probes.
To B23 belongs 3.54 PBM z-score against 500 random probes; to B24, 3.39 PBM z-score against 500 random probes.
To B25 belongs 3.63 PBM z-score against 500 random probes; to B26, 3.61 PBM z-score against 500 random probes.
Under B27 stands 3.29 PBM z-score against 500 random probes; under B28, 3.22 PBM z-score against 500 random probes.
On to B29, for which the binding signal is 3.5 PBM z-score against 500 random probes.
For B30, the binding signal is 3.53 PBM z-score against 500 random probes.
Under B31 stands 3.57 PBM z-score against 500 random probes; under B32, 3.2 PBM z-score against 500 random probes.
